What was measured:
c-Myc = target: T1, c-Myc (human, UniProt P01106-1 1-439, limits assumed); experiment: PLA of endogenous proteins in HEK293T cells (FIG. 21B)
T1 construct: also called c-Myc oncoprotein

[1] = target: T2, receptor-interacting protein kinase 2 (RIPK2), endogenous (human, UniProt O43353 1-540); experiment: PLA of endogenous proteins in HEK293T and parental PC cells (FIG. 20A-B)
T2 construct: Endogenous protein detected in cells with anti-RIPK2 antibodies (PLA, IP)

[2] = target: T3, 3×FLAG-tagged RIPK2 (RIPK2m4 with C-terminal 3×FLAG tag) (human, UniProt O43353 1-540); experiment: IP of RIPK2 complexes, label-free MS (heatmap and LFQ histogram, FIG. 5A-B)
T3 construct: The same label (3×Flag-tagged RIPK2, expressed in HeLa cells) is the enzyme of the in vitro kinase assay; also called RIPK2-Flag; RIPK2m4-3×FLAG; not shown: 3×FLAG tag fused to the C-terminus

Measured: binding result

T1 sequence (P01106 16-454 limits assumed): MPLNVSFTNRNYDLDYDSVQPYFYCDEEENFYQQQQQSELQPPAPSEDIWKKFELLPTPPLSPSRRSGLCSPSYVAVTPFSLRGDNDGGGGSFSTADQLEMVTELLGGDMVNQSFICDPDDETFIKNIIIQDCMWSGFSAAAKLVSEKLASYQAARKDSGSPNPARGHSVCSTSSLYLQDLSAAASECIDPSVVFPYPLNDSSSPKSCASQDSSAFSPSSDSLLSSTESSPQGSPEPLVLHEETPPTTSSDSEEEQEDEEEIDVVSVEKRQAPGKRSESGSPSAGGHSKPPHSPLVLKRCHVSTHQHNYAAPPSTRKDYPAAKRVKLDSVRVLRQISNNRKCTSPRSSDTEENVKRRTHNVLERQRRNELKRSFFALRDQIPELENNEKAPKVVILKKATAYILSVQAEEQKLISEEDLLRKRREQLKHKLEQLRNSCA
T3 sequence (O43353 whole entry, the tested form may be a part): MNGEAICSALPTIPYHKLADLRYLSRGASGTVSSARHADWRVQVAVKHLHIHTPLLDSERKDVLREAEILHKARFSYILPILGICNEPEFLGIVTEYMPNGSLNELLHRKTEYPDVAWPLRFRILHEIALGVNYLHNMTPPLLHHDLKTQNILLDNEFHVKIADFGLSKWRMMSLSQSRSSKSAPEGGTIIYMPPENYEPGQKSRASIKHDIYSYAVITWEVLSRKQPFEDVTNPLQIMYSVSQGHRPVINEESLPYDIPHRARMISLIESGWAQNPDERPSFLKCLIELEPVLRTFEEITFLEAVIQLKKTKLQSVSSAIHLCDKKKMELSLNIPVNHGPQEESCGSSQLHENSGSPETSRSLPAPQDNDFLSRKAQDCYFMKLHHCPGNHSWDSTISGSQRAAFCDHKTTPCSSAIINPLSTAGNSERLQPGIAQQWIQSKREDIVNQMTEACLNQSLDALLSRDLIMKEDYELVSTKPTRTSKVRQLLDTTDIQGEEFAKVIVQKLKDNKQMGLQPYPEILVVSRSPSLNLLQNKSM
T2 sequence (O43353 whole entry): as the sequence (O43353 whole entry, the tested form may be a part) above

B1: MKK7 (MAP2K7), endogenous (enzyme, human, UniProt O14733 2-419, looked up)
chain: AASSLEQKLSRLEAKLKQENREARRRIDLNLDISPQRPRPTLQLPLANDGGSRSPSSESSPQHPTPPARPRHMLGLPSTLFTPRSMESIEIDQKLQEIMKQTGYLTIGGQRYQAEINDLENLGEMGSGTCGQVWKMRFRKTGHVIAVKQMRRSGNKEENKRILMDLDVVLKSHDCPYIVQCFGTFITNTDVFIAMELMGTCAEKLKKRMQGPIPERILGKMTVAIVKALYYLKEKHGVIHRDVKPSNILLDERGQIKLCDFGISGRLVDSKAKTRSAGCAAYMAPERIDPPDPTKPDYDIRADVWSLGISLVELATGQFPYKNCKTDFEVLTKVLQEEPPLLPGHMGFSGDFQSFVKDCLTKDHRKRPKYNKLLEHSFIKRYETLEVDVASWFKDVMAKTESPRTSGVLSQPHLPFFR
binds: all assays above

— patent publication US20230139516A1 (CEDARS SINAI MEDICAL CENTER, published 2023)
